In patent publication US20200291104A1 (UCB, published 2020):
Where “and” joins values, the source holds several entries; their conditions need not be identical. Equal entries are not always repeated.

B1: 2109 rat/human chimeric Fab (Fab, V domains shown)
VH: EVQLHQSGAALVKPGASVKLSCKTSGYTFTDNYIHWVKQSPGKSLEWIGYINPSSAYAHYNEKFKTKATLTVDKSTNTAYMELSRLTSEDSATYFCTRRYYSAMPFAYWGQGTLVTVSS
VL: DIVMTQSPASLSASLGETVTIECRASEDIYNGLAWYQQKPGKSPHLLIYNSNTLHTGVPSRFSGTGSGTQYSLKINSLQSEDVATYFCQQNYDFPLTFGSGTKLELKR
B2: CA2109 IgG (recombinant rat/mouse chimeric IgG1) (antibody, V domains shown)
VH: B1 VH
VL: DIVMTQSPASLSASLGETVTIECRASEDIYNGLAWYQQKPGKSPHLLIYNSNTLHTGVPSRFSGTGSGTQYSLKINSLQSEDVATYFCQQNYDFPLTFGSGTKLELK

What was measured:
[1] = target: cynomolgus TNF (cynomolgus) (UniProt P79337); assay: SPR (Biacore T200); Fab captured by anti-human F(ab')2, cynomolgus TNF injected at 3.125 nM
[2] = target: T1, human TNF-alpha (human, UniProt P01375 77-233); assay: SPR (Biacore T200); Fab captured by anti-human F(ab')2, human TNF injected at 5 nM
[3] = target: T1, human TNF-alpha; assay: SPR (Biacore T200); IgG captured by anti-mouse IgG-Fc, human TNF injected at 20 nM
[4] = target: T1, human TNF-alpha; assay: cell-based or functional assay

T1 sequence (P01375 77-233 limits assumed): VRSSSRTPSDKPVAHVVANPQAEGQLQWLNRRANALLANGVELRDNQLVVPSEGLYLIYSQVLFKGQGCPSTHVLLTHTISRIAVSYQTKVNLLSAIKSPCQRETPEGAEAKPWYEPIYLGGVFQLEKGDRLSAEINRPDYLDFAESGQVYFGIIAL

| Binder | Kd [1] | koff [1] [s⁻¹] | kon [1] [M⁻¹ s⁻¹] | Kd [2] | koff [2] [s⁻¹] | kon [2] [M⁻¹ s⁻¹] | Kd [3] [nM] | koff [3] [s⁻¹] | kon [3] [M⁻¹ s⁻¹] | EC50 (ng/ml), neutralisation in HEK-293-CD40-BLUE reporter assay [4] [ng/mL] |
| --- | --- | --- | --- | --- | --- | --- | --- | --- | --- | --- |
| B1 | 0.0274 nM and 0.027 nM | 0.000102 | 3.71e+06 | 0.0349 nM and 0.035 nM | 0.000143 | 4.09e+06 |  |  |  |  |
| B2 |  |  |  |  |  |  | 0.025 | 0.000119 | 4.7e+06 | 0.31 |
